# Publication PMC11879689, “Integrative in silico and biochemical analyses demonstrate direct Arl3-mediated ODA16 release from the intraflagellar transport machinery” (The Journal of Biological Chemistry, 2025)
# Like-named read-outs stand apart in the source and are kept apart here.
# T1: full-length CrODA16 (CrODA16fl) (Chlamydomonas reinhardtii, UniProt Q3Y8L7 1-446)
# T1 construct: ODA16, Chlamydomonas reinhardtii, full length (N-terminal domain residues 1-80, C-terminal beta-propeller residues 80-445); it may be the same protein as CrODA16-HT
# T1 sequence (looked up): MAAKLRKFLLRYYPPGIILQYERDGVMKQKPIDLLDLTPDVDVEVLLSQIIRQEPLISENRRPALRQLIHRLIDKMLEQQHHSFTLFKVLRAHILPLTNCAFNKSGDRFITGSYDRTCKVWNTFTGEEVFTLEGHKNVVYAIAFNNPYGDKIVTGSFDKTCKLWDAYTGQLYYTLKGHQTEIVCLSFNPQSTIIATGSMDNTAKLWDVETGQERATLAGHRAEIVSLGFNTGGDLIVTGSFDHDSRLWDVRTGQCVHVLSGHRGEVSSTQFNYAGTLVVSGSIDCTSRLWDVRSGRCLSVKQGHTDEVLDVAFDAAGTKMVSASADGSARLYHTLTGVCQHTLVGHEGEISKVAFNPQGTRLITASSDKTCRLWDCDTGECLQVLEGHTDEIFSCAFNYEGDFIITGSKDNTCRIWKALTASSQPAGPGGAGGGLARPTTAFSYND
# T2: hexa-His-tagged CrODA16 (CrODA16-HT) (Chlamydomonas reinhardtii, UniProt Q3Y8L7 1-446)
# T2 construct: ODA16, Chlamydomonas reinhardtii; Bait on nickel resin
# T2 sequence (looked up): T1 sequence (looked up)
# B1: CrArl3_Q70L (GTP-locked, full length) (enzyme, Chlamydomonas reinhardtii, UniProt A8ISN6 1-177, looked up)
# chain: MGLLSLIRGLKKKEGEARILVLGLDNAGKTTILKALSEEDITTITPTQGFNIKSLSRDGFNLKIWDIGGLKSIRPYWRNYFDQTDALIYVIDSADSKRLSESEFELTELLQEEKMTGVPLLVFANKQDLVGALAADEIASTLDLTSIRDRPWQIQACSAKQGTGLKEGMEWMMKQVK
# notes: Arl3, Chlamydomonas reinhardtii, with Q70L; codon-optimised synthetic gene; Cloned with C-terminal TEV-His8; Used nucleotide-free or loaded with GTP; also called CrArl3_Q70L-FL
# B2: CrIFT46 (wild type, untagged) (natural protein, Chlamydomonas reinhardtii, UniProt A2T2X4 1-344, looked up)
# chain: MDDSMDYPDRDGDDLDQFQGTARSQVVQNQPHDEEVNLSESESFAGADEPPAAPRDASLIESHDMDEGPAAPARTLSPTGYEAGKHAPGGIANSDEAPPGAYNAQEYKHLNVGEDVRELFSYIGRYKPQTVELDTRIKPFIPDYIPAVGGIDEFIKVPRPDTKPDYLGLKVLDEPAAKQSDPTVLTLQLRQLSKEAPGAKADMVGRLEHTDENKAKKIQQWIASINDIHKAKPAATVNYSKRMPEIEALMQEWPPEVETFLKTMHMPSGDVELDIKTYARLVCTLLDIPVYDDPVESLHVLFTLYLEFKNNPIFRQHMEMENKLDGMSGGGGGMMGGGADVLGL
# notes: IFT46, Chlamydomonas reinhardtii; also called WT CrIFT46
# B3: GST-CrIFT46 (natural protein, Chlamydomonas reinhardtii, UniProt A2T2X4 1-344, looked up)
# chain: B2 chain
# notes: IFT46, Chlamydomonas reinhardtii; also called GST-tagged CrIFT46
# B4: CrIFT46(23-44) peptide (peptide, UniProt A2T2X4 23-44, looked up)
# peptide: RSQVVQNQPHDEEVNLSESESF
# notes: IFT46, Chlamydomonas reinhardtii, residues 23-44; R23 and F44 mark the ends of the peptide; also called IFT46 peptide; source: synthetic peptide
# Legend:
# [1] = molecular target: CrODA16 C-terminal β-propeller, CrODA16C(80-423) (Chlamydomonas reinhardtii) (UniProt Q3Y8L7); test: ITC; 25 °C, MicroCal iTC200; 10 mM HEPES pH 7.5, 200 mM NaCl, 0.5 mM TCEP; 20 μM CrODA16 in the cell, 200 μM IFT46 peptide or CrIDA3 in the syringe
# [2] = molecular target: T1, full-length CrODA16 (CrODA16fl); test: as above
# [3] = molecular target: ODA16 (Chlamydomonas reinhardtii) (UniProt Q3Y8L7); test: ITC; conditions: cited from earlier work
# [4] = molecular target: T2, hexa-His-tagged CrODA16 (CrODA16-HT); test: pull-down; CrODA16-HT (10 μM) immobilised on nickel resin, one prey (20–30 μM), 1 h 4 °C; 10 mM HEPES pH 7.5, 200 mM NaCl, 2 mM MgCl2, 1 mM DTT; eluted with 500 mM imidazole, SDS-PAGE; CrArl3 nucleotide-free; conditions: both partners purified
# [5] = molecular target: T2, hexa-His-tagged CrODA16 (CrODA16-HT); test: pull-down; CrODA16-HT immobilised on nickel resin; two preys added together (CrIFT46 with CrIDA3, also at 3:1 excess of CrIFT46; CrIFT46 with CrArl3), beside each prey alone; conditions: both partners purified
# [6] = molecular target: T1, full-length CrODA16 (CrODA16fl); test: pull-down; competitive binding (titration) assay: GST-tagged bait (10 μM) pre-complexed with CrODA16 (20 μM) on GSH resin, washed, then untagged competitor at rising concentrations, 1 h 4 °C; eluted with 33 mM glutathione, SDS-PAGE; conditions: both partners purified
molecule,measurement,setting,value
"CrIDA3 (residues 1-166 and 241-366), untagged (domain or fragment)",Kd,[1],288 nM
same,Kd,[2],1770 nM
same,stoichiometry N,[2],0.996
IFT46 (from UniProt A2T2X4),Kd,[3],200 nM
B1,binding result,[4],binds
B2,binding result,[5],binds
same,binding result,[6],binds
B3,binding result,[6],binds
B4,Kd,[2]; both partners purified,1000 ± 380 nM
